Molecular target: microtubules (pig (purified from porcine brain))
Test: co-sedimentation

Chain of CKK dimer (mRFP1-FKBP-CKK and mEGFP-FRB-CKK with rapamycin) (Q80VC9 whole entry, looked up, one chain of several): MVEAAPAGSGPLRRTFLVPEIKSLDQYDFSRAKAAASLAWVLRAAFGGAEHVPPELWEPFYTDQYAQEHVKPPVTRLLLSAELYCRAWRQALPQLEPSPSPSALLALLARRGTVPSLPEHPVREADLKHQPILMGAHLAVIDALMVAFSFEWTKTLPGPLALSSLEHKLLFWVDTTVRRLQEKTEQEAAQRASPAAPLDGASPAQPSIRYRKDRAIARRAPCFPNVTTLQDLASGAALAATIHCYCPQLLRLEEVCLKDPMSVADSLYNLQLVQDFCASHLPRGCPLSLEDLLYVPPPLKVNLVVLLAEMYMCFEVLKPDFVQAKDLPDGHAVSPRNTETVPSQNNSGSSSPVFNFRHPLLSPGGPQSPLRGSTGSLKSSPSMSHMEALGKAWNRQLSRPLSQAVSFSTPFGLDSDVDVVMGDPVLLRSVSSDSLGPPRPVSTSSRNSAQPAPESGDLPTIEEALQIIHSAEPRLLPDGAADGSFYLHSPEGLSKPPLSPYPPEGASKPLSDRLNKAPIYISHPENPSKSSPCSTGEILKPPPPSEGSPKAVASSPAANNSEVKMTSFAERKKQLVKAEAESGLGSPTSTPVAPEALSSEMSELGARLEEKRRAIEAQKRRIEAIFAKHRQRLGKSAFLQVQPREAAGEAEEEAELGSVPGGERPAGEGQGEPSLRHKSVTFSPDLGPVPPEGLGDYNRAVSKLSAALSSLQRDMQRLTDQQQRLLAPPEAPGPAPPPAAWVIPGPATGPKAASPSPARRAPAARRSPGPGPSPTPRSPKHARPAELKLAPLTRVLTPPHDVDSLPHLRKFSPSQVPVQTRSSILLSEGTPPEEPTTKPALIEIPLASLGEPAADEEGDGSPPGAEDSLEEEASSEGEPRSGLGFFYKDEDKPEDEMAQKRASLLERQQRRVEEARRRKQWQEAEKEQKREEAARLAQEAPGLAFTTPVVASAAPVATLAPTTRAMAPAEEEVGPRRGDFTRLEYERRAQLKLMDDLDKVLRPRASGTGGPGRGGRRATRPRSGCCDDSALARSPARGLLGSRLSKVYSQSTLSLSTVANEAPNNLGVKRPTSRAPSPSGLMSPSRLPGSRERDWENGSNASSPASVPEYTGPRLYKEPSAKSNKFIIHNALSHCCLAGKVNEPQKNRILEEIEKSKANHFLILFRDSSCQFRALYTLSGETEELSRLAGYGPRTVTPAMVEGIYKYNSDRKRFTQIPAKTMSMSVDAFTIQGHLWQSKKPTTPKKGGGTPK

CKK dimer (mRFP1-FKBP-CKK and mEGFP-FRB-CKK with rapamycin) (from UniProt Q80VC9 1112-1246; Q80VC9 1112-1246) (complex)
Kd: 0.147 µM

From doi:10.1101/2024.05.31.596772
